Patent US20220356228A1
Positions count from the first letter of the chain named.

B1: 6G5 (antibody, V domains shown)
VH: QVQLVQSGAEVKKPGASVKVSCKASGYTFTNYDIHWVRQAAGQGLEWMGWTNPNSGNSDYAQKFQGRVSMTRDTSMRTMYMELNSLRSEDTAVYFCARKIWVGTTIFDYWGQGTLVTVSS
VL: DIQMTQSPSSLSASVGDRVTIACRASQSIYRFLSWYQQKPGTAPKLLIFAVSSLQSGVPSRFSGSGSGTDFTLTISSLHPEDFAIYYCQQSDSPPLTFGGGTKVGIK
B2: 6H7 (antibody, V domains shown)
VH: QVQLVESGGGLVKPGGSLRLSCAGSGFTFSDHYMSWIRQAPGKGLEWVSYISTSGRTIFYVDSVKGRFTISRDNAKNSLYLQMNSLRAEDMAVYYCASDYYDNVGWNYWGQGALVIVSS
VL: DVVLTQSPLSLPVTLGQPASISCRSSQSLVYSDGNTYLNWFQQRPGQSPRRLIYKVSDRDFGVPDRFSGSGSGTDFTLKISRVEAEDVGIYYCMQGTHWPRTFGQGTKVEIK
B3: 5G5 (antibody, V domains shown)
VH: LVQLVESGGGLVKPGGSLRLSCTASGITFSDLYMSWIRQSPGKGLEWISYISTSGRTIYYTDSVKGRFTISRDNAKNSLFLQMNRLRADDTAVYYCAGDYYDNSGWDYWGRGTLVTVSS
VL: B2 VL with D1N, L4M, T14A, S26G, F61S
B4: 8C3 (antibody, V domains shown)
VH: B2 VH with G24A, F59H, V61A, N107D, A113T, I116T
VL: B2 VL with L4M, V30L, F61S, E86D, I90V, T97A

These binders were tested against JCV major capsid protein VP1, wild type (John Cunningham virus (JCV)) (UniProt P03089) (assay: cell-based or functional assay).
JCV major capsid protein VP1, wild type (John Cunningham virus (JCV)), sequence (P03089 whole entry): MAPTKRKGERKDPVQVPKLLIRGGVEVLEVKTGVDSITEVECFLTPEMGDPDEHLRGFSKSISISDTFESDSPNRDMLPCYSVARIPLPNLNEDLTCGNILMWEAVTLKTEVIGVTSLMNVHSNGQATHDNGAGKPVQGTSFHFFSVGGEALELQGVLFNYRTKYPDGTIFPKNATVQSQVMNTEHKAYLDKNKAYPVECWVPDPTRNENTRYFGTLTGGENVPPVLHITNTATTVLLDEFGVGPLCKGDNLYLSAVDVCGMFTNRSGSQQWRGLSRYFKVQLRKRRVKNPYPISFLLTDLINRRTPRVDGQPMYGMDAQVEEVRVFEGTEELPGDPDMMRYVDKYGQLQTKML

Binder	Neutralization of WT JCV: EC50 [pM]
B1	3.1
B2	0.5
B3	0.4
B4	14
